# Measured values published in patent US20250243290A1.
# “And” between values parts separate entries of the source, which are not always exact repeats. Equal entries are not always repeated.
# How the values were obtained:
# Assay in all cases: peptide-array ELISA [Con't]
# [1] = target: 2RLCAPLRK2…2APGTFSN
# [2] = target: E2LSCGSR2…2T
# [3] = target: EGCRL2…
# [4] = target: LSKQEG2…2APGTFSN
# [5] = target: WY2…
# [6] = target: Y2…
# [7] = target: 2LS2…2RPG
# [8] = target: 2LS2…2…2
# [9] = target: 2LSCGSR2…
# [10] = target: 2TREQNRI2…2R
# [11] = target: 2…
# [12] = target: C22SK2…2CQA2TREQNRI2T2RPC
# [13] = target: C2T2RPGWY2…2…
# [14] = target: CAPLRK2…2TSTSPTRC
# [15] = target: CAV2…2…
# [16] = target: CDQVETQA2…2RLC
# [17] = target: CGWY2ALSKQEG2RL2CQA2TREQNRI2T2RPC
# [18] = target: CI2RPHQI2…2…
# [19] = target: CLSKQEG2RL2APLRKCQA2TREQNRI2T2RPC
# [20] = target: CLSKQEG2RL2…2TREQNRIC
# [21] = target: CNASMDAV2…2TREQNRI2T2RPC
# [22] = target: CNASMDAV2…2TSTSPTRC
# [23] = target: CNWVPE2LS2GSR2…2TSTSPTRC
# [24] = target: CQA2TREQNRI2T2RPCQA2TREQNRI2T2RPC
# [25] = target: CQA2TREQNRI2T2…2RLC
# [26] = target: CQTAQM22SK2…2TSTSPTRC
# [27] = target: CQTAQM22SK2…2…
# [28] = target: CTSSTDI2RPHQI2NVCAPLRK2…
# [29] = target: CTSSTDI2RPHQI2NVCQA2TREQNRI2T2RPC
# [30] = target: DI2…
# [31] = target: DVV2…
# [32] = target: EQNRI2…2RL
# [33] = target: NWVPE2…2T2
# [34] = target: PE2LS2…2R
# [35] = target: QEG2…2APGTFSN
# [36] = target: QNRI2…2R
# [37] = target: REQNRI2…2RL
# [38] = target: S2…2…
# [39] = target: STDI2…
# [40] = target: VPE2LS2…2R
# [41] = target: VPE2LSCGSR2…
# [42] = target: …22SK2CAPLRK2…
# [43] = target: …22SK2CQA2TREQNRI2T2RPC
# [44] = target: …2LS2GCLSKQEG2RL2APLRKC
# [45] = target: …2RLCAPLRK2…
# [46] = target: …2R
# [47] = target: …2SK2SPGQ
# [48] = target: …2TREQNRI2T2RPC
# [49] = target: …2TSTSPTRC
# [50] = target: …2…2…
# [51] = target: …2…
# Sequence of Y2… (peptide, as listed by the source): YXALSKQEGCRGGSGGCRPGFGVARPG
# Sequence of …2R (peptide, as listed by the source): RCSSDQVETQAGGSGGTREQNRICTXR
# Sequence of …2TSTSPTRC (peptide, as listed by the source): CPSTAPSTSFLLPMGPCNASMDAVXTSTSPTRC
# Sequence of STDI2… (peptide, as listed by the source): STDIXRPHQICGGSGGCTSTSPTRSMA
# Sequence of WY2… (peptide, as listed by the source): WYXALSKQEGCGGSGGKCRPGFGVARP
# Sequence of EGCRL2… (peptide, as listed by the source): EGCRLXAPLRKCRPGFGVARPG
# Sequence of DI2… (peptide, as listed by the source): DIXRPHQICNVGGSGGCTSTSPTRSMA
substance,measurement,setting,value
agonistic TNFR2 antibody MR2-1,Raw luminescence data,[1],245
same,Raw luminescence data,[2],225
same,Raw luminescence data,[3],239
same,Raw luminescence data,[4],247
same,Raw luminescence data,[5],254
same,Raw luminescence data,[6],256
same,Raw luminescence data,[7],162
same,Raw luminescence data,[8],167
same,Raw luminescence data,[9],157
same,Raw luminescence data,[10],164
same,Raw luminescence data,[11],170
same,Raw luminescence data,[12],158
same,Raw luminescence data,[13],161
same,Raw luminescence data,[14],167
same,Raw luminescence data,[15],171
same,Raw luminescence data,[16],157
same,Raw luminescence data,[17],158
same,Raw luminescence data,[18],165
same,Raw luminescence data,[19],158
same,Raw luminescence data,[20],160
same,Raw luminescence data,[21],157
same,Raw luminescence data,[22],164
same,Raw luminescence data,[23],161
same,Raw luminescence data,[24],166
same,Raw luminescence data,[25],171
same,Raw luminescence data,[26],164
same,Raw luminescence data,[27],161
same,Raw luminescence data,[28],158
same,Raw luminescence data,[29],166
same,Raw luminescence data,[30],166
same,Raw luminescence data,[31],159
same,Raw luminescence data,[32],159
same,Raw luminescence data,[33],168
same,Raw luminescence data,[34],162
same,Raw luminescence data,[35],167
same,Raw luminescence data,[36],170
same,Raw luminescence data,[37],161
same,Raw luminescence data,[38],171
same,Raw luminescence data,[39],159
same,Raw luminescence data,[40],170
same,Raw luminescence data,[41],165
same,Raw luminescence data,[42],168
same,Raw luminescence data,[43],158
same,Raw luminescence data,[44],164
same,Raw luminescence data,[45],165
same,Raw luminescence data,[46],160
same,Raw luminescence data,[47],163 and 156
same,Raw luminescence data,[48],163
same,Raw luminescence data,[49],159
same,Raw luminescence data,[50],160
same,Raw luminescence data,[51],166 and 165
